Data taken from patent US20200317768A1 (published 2020).

How the values were obtained:
Test in all cases: SPR (Biacore), KD of SG1 / KD of variant;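 further: relative to parent M103205H795-SG1 carrying the SG1 human heavy chain constant region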
[1] = target: T1, cynomolgus monkey FcγRIIa1 extracellular domain, C-terminal His-tag (cynomolgus monkey)
T1 construct: also called cyno FcγRIIa1; cynoFcgRIIa1; not shown: His-tag added to C-terminus
T1 chain: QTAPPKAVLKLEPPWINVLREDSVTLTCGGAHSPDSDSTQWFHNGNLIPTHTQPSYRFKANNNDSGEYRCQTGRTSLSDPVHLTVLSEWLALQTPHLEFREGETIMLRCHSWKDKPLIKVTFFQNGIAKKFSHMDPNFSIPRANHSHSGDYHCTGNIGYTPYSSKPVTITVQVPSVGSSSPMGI

[2] = target: T2, human FcγRIIb extracellular domain, C-terminal His-tag (human, UniProt P31994 43-217)
T2 construct: also called FcgRIIb (human); not shown: His-tag added to C-terminus
T2 sequence: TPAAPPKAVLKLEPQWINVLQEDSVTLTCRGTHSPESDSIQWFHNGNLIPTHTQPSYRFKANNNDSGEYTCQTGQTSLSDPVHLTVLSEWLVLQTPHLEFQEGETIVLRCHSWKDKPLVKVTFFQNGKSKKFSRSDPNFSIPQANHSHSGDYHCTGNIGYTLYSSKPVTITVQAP

[3] = target: T3, cynomolgus monkey FcγRIIIaS extracellular domain, C-terminal His-tag (cynomolgus monkey, UniProt A3RFZ7 21-206 (rhesus entry))
T3 construct: also called cyno FcγRIIIaS; cynoFcγRIIIaS; not shown: His-tag added to C-terminus
T3 sequence (A3RFZ7 21-206): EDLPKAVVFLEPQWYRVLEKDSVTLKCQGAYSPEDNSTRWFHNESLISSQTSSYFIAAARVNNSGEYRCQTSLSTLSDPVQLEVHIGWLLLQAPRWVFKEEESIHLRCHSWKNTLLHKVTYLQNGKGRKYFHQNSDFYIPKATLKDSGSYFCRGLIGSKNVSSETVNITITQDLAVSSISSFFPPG

[4] = target: T4, human FcγRIIIaV extracellular domain, C-terminal His-tag (human, UniProt P08637 17-208)
T4 construct: also called FcgRIIIaV; not shown: His-tag added to C-terminus
T4 sequence (P08637 17-208 F176V): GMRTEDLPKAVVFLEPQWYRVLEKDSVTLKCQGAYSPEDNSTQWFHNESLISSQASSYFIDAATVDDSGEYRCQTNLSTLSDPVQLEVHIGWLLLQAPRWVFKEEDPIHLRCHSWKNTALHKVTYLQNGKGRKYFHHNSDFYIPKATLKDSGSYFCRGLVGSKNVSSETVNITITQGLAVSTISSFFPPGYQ

[5] = target: T5, cynomolgus monkey FcγRIIb extracellular domain, C-terminal His-tag (cynomolgus monkey)
T5 construct: also called cyno FcγRIIb; cynoFcγRIIb; not shown: His-tag added to C-terminus
T5 chain: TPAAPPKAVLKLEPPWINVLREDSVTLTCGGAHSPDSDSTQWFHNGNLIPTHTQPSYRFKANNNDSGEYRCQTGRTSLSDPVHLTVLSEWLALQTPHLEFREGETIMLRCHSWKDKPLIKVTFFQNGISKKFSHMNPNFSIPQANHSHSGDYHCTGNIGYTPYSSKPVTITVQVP

[6] = target: T6, human FcγRIIaR extracellular domain, C-terminal His-tag (human, UniProt P12318 34-217)
T6 construct: also called human FcγRIIa (type R); FcgRIIaR; not shown: His-tag added to C-terminus
T6 chain: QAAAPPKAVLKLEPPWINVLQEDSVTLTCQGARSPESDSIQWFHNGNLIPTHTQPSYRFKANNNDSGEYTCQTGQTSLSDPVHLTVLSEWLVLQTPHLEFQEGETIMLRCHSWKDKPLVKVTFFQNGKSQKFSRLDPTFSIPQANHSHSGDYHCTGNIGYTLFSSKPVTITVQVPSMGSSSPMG

[7] = target: T7, cynomolgus monkey FcγRIIa2 extracellular domain, C-terminal His-tag (cynomolgus monkey)
T7 construct: also called cyno FcγRIIa2; cynoFcgRIIa2; not shown: His-tag added to C-terminus
T7 chain: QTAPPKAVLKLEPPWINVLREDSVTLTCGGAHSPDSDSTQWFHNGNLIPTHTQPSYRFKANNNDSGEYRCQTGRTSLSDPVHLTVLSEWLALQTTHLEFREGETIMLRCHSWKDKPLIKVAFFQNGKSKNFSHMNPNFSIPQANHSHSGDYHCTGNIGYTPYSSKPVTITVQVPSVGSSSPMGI

[8] = target: T8, human FcγRIIaH extracellular domain, C-terminal His-tag (human, UniProt P12318 34-217)
T8 construct: also called human FcγRIIa (type H); FcgRIIaH; not shown: His-tag added to C-terminus
T8 sequence: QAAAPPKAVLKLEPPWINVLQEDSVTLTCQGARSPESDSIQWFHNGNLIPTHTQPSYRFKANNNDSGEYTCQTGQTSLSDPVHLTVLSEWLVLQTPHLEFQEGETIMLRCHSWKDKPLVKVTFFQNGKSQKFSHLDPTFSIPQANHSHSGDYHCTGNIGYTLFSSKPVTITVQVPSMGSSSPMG

B1: M103205H795-MY228/M103202L889-SK1 (antibody, human IgG1, kappa)
heavy: QVTLKESGPVLVKPTETLTLTCTVSGIDLSHDDISWVRQAPGKGLEWVGIISYAGSTYYASWAKGRLTISKDTSKNQVVLTMTNMDPVDTATYYCARGVPAYSHGGDLWGQGTLVTVSSASTKGPSVFPLAPSSKSTSGGTAALGCLVKDYFPEPVTVSWNSGALTSGVHTFPAVLQSSGLYSLSSVVTVPSSSLGTQTYICNVNHKPSNTKVDKKVEPKSCDKTHTCPPCPAPELLGYPSVFLFPPKPKDTLMISRTPEVTCVVVDVSDEDPEVKFNWYVDGVEVHNAKTKPREELYNSTYRVVSVLTVLHQDWLNGKEYKCKVSNKALPKPIEKTISKAKGQPREPQVYTLPPSREEMTKNQVSLTCLVKGFYPSDIAVEWESNGQPENNYKTTPPVLDSDGSFFLYSKLTVDKSRWQQGNVFSCSVMHEALHNHYTQKSLSLSP
light: DIVMTQSPATLSLSPGERATLSCTSSQSVYHANWLSWFQQKPGQPPKLLIYWASTLAYGVPSRFSGSGSGTDFTLTISSLQPEDAATYYCAGGYGGGRYAFGQGTKVEIKRTVAAPSVFIFPPSDEQLKSGTASVVCLLNNFYPREAKVQWKVDNALQSGNSQESVTEQDSKDSTYSLSSTLTLSKADYEKHKVYACEVTHQGLSSPVTKSFNRGEC
KD fold (SG1 = 1) [1]: 1.1 fold
KD fold (SG1 = 1) [2]: 15.3 fold
KD fold (SG1 = 1) [3]: 0.04 fold
KD fold (SG1 = 1) [4]: 0.02 fold
KD fold (SG1 = 1) [5]: 1.6 fold
KD fold (SG1 = 1) [6]: 6.5 fold
KD fold (SG1 = 1) [7]: 1 fold
KD fold (SG1 = 1) [8]: 0.3 fold

B2: M103205H795-MY269/M103202L889-SK1 (antibody, human IgG1, kappa)
heavy: QVTLKESGPVLVKPTETLTLTCTVSGIDLSHDDISWVRQAPGKGLEWVGIISYAGSTYYASWAKGRLTISKDTSKNQVVLTMTNMDPVDTATYYCARGVPAYSHGGDLWGQGTLVTVSSASTKGPSVFPLAPSSKSTSGGTAALGCLVKDYFPEPVTVSWNSGALTSGVHTFPAVLQSSGLYSLSSVVTVPSSSLGTQTYICNVNHKPSNTKVDKKVEPKSCDKTHTCPPCPAPELLMGPSVFLFPPKPKDTLMISRTPEVTCVVVDVSDEDPEVKFNWYVDGVEVHNAKTKPREEQYNSTYRVVSVLTVLHQDWLNGKEYKCKVSNKALPKPIEKTISKAKGQPREPQVYTLPPSREEMTKNQVSLTCLVKGFYPSDIAVEWESNGQPENNYKTTPKVLDSDGSFFLYSKLTVDKSRWQQGNVFSCSVMHEALHNHYTQKSLSLSP
light: DIVMTQSPATLSLSPGERATLSCTSSQSVYHANWLSWFQQKPGQPPKLLIYWASTLAYGVPSRFSGSGSGTDFTLTISSLQPEDAATYYCAGGYGGGRYAFGQGTKVEIKRTVAAPSVFIFPPSDEQLKSGTASVVCLLNNFYPREAKVQWKVDNALQSGNSQESVTEQDSKDSTYSLSSTLTLSKADYEKHKVYACEVTHQGLSSPVTKSFNRGEC
KD fold (SG1 = 1) [1]: 1.4 fold
KD fold (SG1 = 1) [2]: 2.2 fold
KD fold (SG1 = 1) [3]: 1.64 fold
KD fold (SG1 = 1) [4]: 0.74 fold
KD fold (SG1 = 1) [5]: 2.8 fold
KD fold (SG1 = 1) [6]: 1.5 fold
KD fold (SG1 = 1) [7]: 2 fold
KD fold (SG1 = 1) [8]: 2.3 fold

B3: M103205H795-MY242/M103202L889-SK1 (antibody, human IgG1, kappa)
heavy: QVTLKESGPVLVKPTETLTLTCTVSGIDLSHDDISWVRQAPGKGLEWVGIISYAGSTYYASWAKGRLTISKDTSKNQVVLTMTNMDPVDTATYYCARGVPAYSHGGDLWGQGTLVTVSSASTKGPSVFPLAPSSKSTSGGTAALGCLVKDYFPEPVTVSWNSGALTSGVHTFPAVLQSSGLYSLSSVVTVPSSSLGTQTYICNVNHKPSNTKVDKKVEPKSCDKTHTCPPCPAPELLGGISVFLFPPKPKDTLMISRTPEVTCVVVDVSDEDPEVKFNWYVDGVEVHNAKTKPREEQYNSTYRVVSVLTVLHQDWLNGKEYKCKVSNKALPKPIEKTISKAKGQPREPQVYTLPPSREEMTKNQVSLTCLVKGFYPSDIAVEWESNGQPENNYKTTPKVLDSDGSFFLYSKLTVDKSRWQQGNVFSCSVMHEALHNHYTQKSLSLSP
light: DIVMTQSPATLSLSPGERATLSCTSSQSVYHANWLSWFQQKPGQPPKLLIYWASTLAYGVPSRFSGSGSGTDFTLTISSLQPEDAATYYCAGGYGGGRYAFGQGTKVEIKRTVAAPSVFIFPPSDEQLKSGTASVVCLLNNFYPREAKVQWKVDNALQSGNSQESVTEQDSKDSTYSLSSTLTLSKADYEKHKVYACEVTHQGLSSPVTKSFNRGEC
KD fold (SG1 = 1) [1]: 0.7 fold
KD fold (SG1 = 1) [2]: 2.4 fold
KD fold (SG1 = 1) [3]: 0.68 fold
KD fold (SG1 = 1) [4]: 0.25 fold
KD fold (SG1 = 1) [5]: 1.6 fold
KD fold (SG1 = 1) [6]: 1.7 fold
KD fold (SG1 = 1) [7]: 1.2 fold
KD fold (SG1 = 1) [8]: 0.8 fold

B4: M103205H795-MY229/M103202L889-SK1 (antibody, human IgG1, kappa)
heavy: QVTLKESGPVLVKPTETLTLTCTVSGIDLSHDDISWVRQAPGKGLEWVGIISYAGSTYYASWAKGRLTISKDTSKNQVVLTMTNMDPVDTATYYCARGVPAYSHGGDLWGQGTLVTVSSASTKGPSVFPLAPSSKSTSGGTAALGCLVKDYFPEPVTVSWNSGALTSGVHTFPAVLQSSGLYSLSSVVTVPSSSLGTQTYICNVNHKPSNTKVDKKVEPKSCDKTHTCPPCPAPELLGYPSVFLFPPKPKDTLMISRTPEVTCVVVDVSDEDPEVKFNWYVDGVEVHNAKTKPREELYNSTYRVVSVLTVLHQDWLNGKEYKCKVSNKALPKPIEKTISKAKGQPREPQVYTLPPSREEMTKNQVSLTCLVKGFYPSDIAVEWESNGQPENNYKTTPKVLDSDGSFFLYSKLTVDKSRWQQGNVFSCSVMHEALHNHYTQKSLSLSP
light: DIVMTQSPATLSLSPGERATLSCTSSQSVYHANWLSWFQQKPGQPPKLLIYWASTLAYGVPSRFSGSGSGTDFTLTISSLQPEDAATYYCAGGYGGGRYAFGQGTKVEIKRTVAAPSVFIFPPSDEQLKSGTASVVCLLNNFYPREAKVQWKVDNALQSGNSQESVTEQDSKDSTYSLSSTLTLSKADYEKHKVYACEVTHQGLSSPVTKSFNRGEC
KD fold (SG1 = 1) [1]: 2 fold
KD fold (SG1 = 1) [2]: 30.7 fold
KD fold (SG1 = 1) [3]: 0.09 fold
KD fold (SG1 = 1) [4]: 0.02 fold
KD fold (SG1 = 1) [5]: 3.8 fold
KD fold (SG1 = 1) [6]: 13 fold
KD fold (SG1 = 1) [7]: 2.3 fold
KD fold (SG1 = 1) [8]: 0.7 fold

B5: M103205H795-MY270/M103202L889-SK1 (antibody, human IgG1, kappa)
heavy: QVTLKESGPVLVKPTETLTLTCTVSGIDLSHDDISWVRQAPGKGLEWVGIISYAGSTYYASWAKGRLTISKDTSKNQVVLTMTNMDPVDTATYYCARGVPAYSHGGDLWGQGTLVTVSSASTKGPSVFPLAPSSKSTSGGTAALGCLVKDYFPEPVTVSWNSGALTSGVHTFPAVLQSSGLYSLSSVVTVPSSSLGTQTYICNVNHKPSNTKVDKKVEPKSCDKTHTCPPCPAPELLHGPSVFLFPPKPKDTLMISRTPEVTCVVVDVSDEDPEVKFNWYVDGVEVHNAKTKPREEQYNSTYRVVSVLTVLHQDWLNGKEYKCKVSNKALPKPIEKTISKAKGQPREPQVYTLPPSREEMTKNQVSLTCLVKGFYPSDIAVEWESNGQPENNYKTTPKVLDSDGSFFLYSKLTVDKSRWQQGNVFSCSVMHEALHNHYTQKSLSLSP
light: DIVMTQSPATLSLSPGERATLSCTSSQSVYHANWLSWFQQKPGQPPKLLIYWASTLAYGVPSRFSGSGSGTDFTLTISSLQPEDAATYYCAGGYGGGRYAFGQGTKVEIKRTVAAPSVFIFPPSDEQLKSGTASVVCLLNNFYPREAKVQWKVDNALQSGNSQESVTEQDSKDSTYSLSSTLTLSKADYEKHKVYACEVTHQGLSSPVTKSFNRGEC
KD fold (SG1 = 1) [1]: 1.8 fold
KD fold (SG1 = 1) [2]: 1.3 fold
KD fold (SG1 = 1) [3]: 0.33 fold
KD fold (SG1 = 1) [4]: 0.22 fold
KD fold (SG1 = 1) [5]: 3.4 fold
KD fold (SG1 = 1) [6]: 3.1 fold
KD fold (SG1 = 1) [7]: 2.4 fold
KD fold (SG1 = 1) [8]: 9.5 fold
